According to article PMC9960219, “Structural and DNA end resection study of the bacterial NurA-HerA complex” (BMC Biology, 2023):
Blank lines part the entries; values can stand above or below the molecule they belong to.

Experiments:
[1] = molecular target: Deinococcus radiodurans HerA (Deinococcus radiodurans)
[2] = molecular target: HerA with point mutations D78A, E80A, and D81A (Deinococcus radiodurans)
[3] = molecular target: Deinococcus radiodurans NurA (Deinococcus radiodurans); test: cryo-EM structure; purified drNurA-HerA complex, low-resolution (~9 Å) map, 200 kV, 3D refinement with C2 symmetry; drHerA crystal structure and an AlphaFold2 model of drNurA fitted and refined into the map
[4] = molecular target: T1, drHerA (Deinococcus radiodurans, UniProt Q9RW32); test: X-ray crystal structure, […] Å; type: binding; conditions: Mg2+; crystals set up with ADP, NaF and AlCl3, only ADP seen; one ADP per protomer
T1 construct: gene DR_0837; full length, residues 1-618, N-terminal 6xHis tag (pET28a), expressed in E. coli Rosetta (DE3); homohexamer; ADP site between two protomers
T1 sequence (Q9RW32 1-618): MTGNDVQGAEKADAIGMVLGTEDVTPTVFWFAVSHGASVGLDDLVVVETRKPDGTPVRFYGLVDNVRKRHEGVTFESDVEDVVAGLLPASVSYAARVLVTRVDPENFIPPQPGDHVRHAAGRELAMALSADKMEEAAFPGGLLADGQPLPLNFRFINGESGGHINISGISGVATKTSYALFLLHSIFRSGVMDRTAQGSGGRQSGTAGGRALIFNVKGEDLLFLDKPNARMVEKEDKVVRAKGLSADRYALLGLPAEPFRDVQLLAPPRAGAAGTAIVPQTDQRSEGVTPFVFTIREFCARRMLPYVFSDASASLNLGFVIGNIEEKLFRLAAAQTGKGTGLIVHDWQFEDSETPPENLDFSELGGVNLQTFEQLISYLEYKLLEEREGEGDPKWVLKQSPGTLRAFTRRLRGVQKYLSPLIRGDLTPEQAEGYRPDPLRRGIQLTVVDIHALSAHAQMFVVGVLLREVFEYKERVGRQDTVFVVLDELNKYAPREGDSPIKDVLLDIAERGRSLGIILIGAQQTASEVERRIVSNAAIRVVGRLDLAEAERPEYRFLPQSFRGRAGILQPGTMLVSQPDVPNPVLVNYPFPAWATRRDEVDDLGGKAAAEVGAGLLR

[5] = molecular target: Deinococcus radiodurans HerA (Deinococcus radiodurans); test: crystal structure; drHerA without any ligand, space group P3(1)21, 3.0 Å; sitting drop at 289 K, 0.1 M HEPES (pH 7.5), 1.3 M NaAc
[6] = molecular target: Deinococcus radiodurans HerA (Deinococcus radiodurans); test: cryo-EM structure; 2D class averages (top views) of purified drHerA alone, with ADP, with ADPNP or with 46-bp dsDNA; 200 kV Tecnai F20
[7] = molecular target: Deinococcus radiodurans HerA (Deinococcus radiodurans); test: crystal structure; drHerA with ADP bound (set up with ADP•AlF3, MgAc), space group P2(1)2(1)2(1), 3.4 Å; 0.2 M MgCl2, 0.1 M HEPES (pH 7.8), 14% PEG 3350
[8] = molecular target: Deinococcus radiodurans HerA (Deinococcus radiodurans); test: cryo-EM structure; purified drNurA-HerA complex, low-resolution (~9 Å) map, 200 kV, 3D refinement with C2 symmetry; drHerA crystal structure and an AlphaFold2 model of drNurA fitted and refined into the map

ATPase activity of drHerA with drNurA, Mn2+, ds DNA (ATPase mol/protein/min) [1]: 4.18
ATPase activity of drHerA with drNurA, Mn2+, no DNA (ATPase mol/protein/min) [1]: 0.42
ATPase activity of drHerA with drNurA, Mn2+, ss DNA (ATPase mol/protein/min) [1]: 28.6
ATPase activity of HerA^m with drNurA, Mn2+, ds DNA (ATPase mol/protein/min) [2]: 0.38
ATPase activity of HerA^m with drNurA, Mn2+, no DNA (ATPase mol/protein/min) [2]: < 0.01
ATPase activity of HerA^m with drNurA, Mn2+, ss DNA (ATPase mol/protein/min) [2]: 6.01
stoichiometry N [3]: 2
Molecule: Deinococcus radiodurans NurA (enzyme)

Molecule: Nc1ncnc2c1ncn2[C@@H]1O[C@H](COP(=O)(O)OP(=O)(O)O)[C@@H](O)[C@H]1O [ADP]
X-ray crystal structure, 3.4 Å [4]: each protomer is bound to one ADP molecule

stoichiometry N [5]: 6
stoichiometry N [6]: 6
stoichiometry N [7]: 6
stoichiometry N [8]: 6
Molecule: Deinococcus radiodurans HerA (enzyme)
